Results on two substances are retold here after doi:10.1101/2021.02.11.430706.

For test [1], the target named is MtCNNMΔC R235L (Methanoculleus thermophilus). Briefly: crystal structure.
Test [2] concerns the target MtCNNMΔC_(Δloop) (Methanoculleus thermophilus CNNM, residues 1-322 Δ259-262) (Methanoculleus thermophilus). Briefly: crystal structure.

A word on the stoichiometry N: it is the number of molecules, sites or subunits per partner or assembly. In turn, MtCNNMΔC R235L (domain or fragment) registered a stoichiometry N in test [1] of 2.
In test [2], “MtCNNMΔC_(Δloop) (Methanoculleus thermophilus CNNM, residues 1-322 Δ259-262) (domain or fragment)” came in with a stoichiometry N of 2.
